# In US20230250158A1:
# Target: SARS-CoV-2 Spike protein on VSV pseudotyped virus particles (Wuhan-1 isolate Spike sequence) (SARS-CoV-2) (UniProt P0DTC2)
# Assay: cell-based or functional assay
row,Substance,IC50 in pseudovirus assays [µg/mL]
1,REGN10933 (antibody),0.67
2,REGN10987 (antibody),0.45
